Results taken from the supplement of paper PMC9170038.

Test system: K4 kissing-loop RNA reporter
Assay: apparent KD of K4 kissing-loop reporter; higher = weaker reporter binding
Conditions: Eterna round: R107
Description: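 RNA-MaP round R107: designed RNA switches with theophylline, tryptophan, arginine or FMN aptamers are transcribed on-chip within common flanks. They are titrated with a labelled K4 kissing-loop RNA reporter in RNA-MaP buffer (100 mM Tris pH 7.5, 80 mM KCl, 4 mM MgCl2), without ligand or with the indicated ligand. Median apparent KD per design.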

[1] = input ligand: theophylline 20 uM
[2] = input ligand: tryptophan 2.4 mM
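Further: bound reporter read as fluorescence of individual clusters on recovered sequencing chips by microscopy, with normalized cluster intensities fitted with a binding model.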

Sequence | apparent KD of K4 kissing-loop reporter (input ligand: FMN 200 uM) | apparent KD of K4 kissing-loop reporter (input ligand: arginine 13.2 mM) | apparent KD of K4 kissing-loop reporter (input ligand: none) | apparent KD of K4 kissing-loop reporter [1] | apparent KD of K4 kissing-loop reporter [2]
UGGAGUUGACGAAAAGUCAACUCCCGAGAAGGAGCGGACGAAAGUCCAGGUAGGUCGCUCGCUACCAGUGAUGUUGGUACGUAAA | 107 nM | 143 nM | 116 nM | 139 nM | 101 nM
UGAUACCAGACGGCCGCCACUCCCGUAAGUCAAAGACUUACCAAGAGUAUCGUCCAGUGAUGUUGGAGGACCGGGUCUGGUAUCU [FiskerMod 9 - Jieux - Exclusion - Tryptophan B] | 376 nM | 321 nM | 330 nM | 320 nM | 829 nM
CGUUUAUAGCAGGAUACCAGUACGGAUAAGGUACGUUAAUAGUAGAGUGAUGUUCUAAAGUACCCUUGGCAGCUUAGAGUGAGUG [#20 K4 Theophylline B Exclusion] | 90.3 nM | 147 nM | 142 nM | 126 nM | 92.2 nM
GGCAUGCGUAGAGUGAUGUUCUAAGAUGAUACCAGUGCGGAAACGCACCCUUGGCAGCAUCUGACGAGCAUGCCGGCGAAAGCCU | 792 nM | 586 nM | 814 nM | 607 nM | 771 nM
ACGAAUCCAGCGGCCGCCACUAUUCGAUGAGUGAUGUUUAGGAGUAGAUCAUACCGCCGUGGUAAUAGGACCGGGCUCUUUGUAG [theeternabot_exclusion_KL_Trp_B_36] | 289 nM | 129 nM | 201 nM | 193 nM | 207 nM
AGAGUUAAUUAGUCUUUUUUCACAUUAAGUCAGGAUAUCGUAUUUUCGAGAAGGGACACAUGCUAGUGAUGUUAGCUAUUUCUCA [JR_Nu3_ExcFMNA_Sub020] | 60.1 nM | 103 nM | 67.5 nM | 114 nM | 59.6 nM
GCAGUGAUGUUGCUGAUGUACAGUGGGAUACGAGGACCGGUACGGCCGCCACUCGUACAGAACUUAUUAAUACAUCGAUAAGUGA [XIV] | 534 nM | 612 nM | 710 nM | 643 nM | 687 nM
UACUAUAGUGAUGUUAUAGAUAAACCAGAUACCAGUGUAACAUAACACCCUUGGCAGCUGAUAAGGGAAAGUAUAAAUGUGUAUU [AstrosSSTHe-A#3newdesignED] | 230 nM | 198 nM | 228 nM | 219 nM | 205 nM
AAAAUAAACCAGUGAUGUUGGUGUCCAGAUACCAGCGACGAAAGUCGCCCUUGGCAGCUGUGGACGUACAAAAUAAGUACGUCCU | 332 nM | 229 nM | 356 nM | 209 nM | 290 nM
CAUAUAUAUAGAGGAUAUCGAGUAGAGUGAUGUUCUGCCUGGGUUGGCUCGCAAGGGCCUUCCCAGCGAGAAGGCUAUAUAUAUG [harrys-mod#1ED5.33] | 225 nM | 399 nM | 502 nM | 431 nM | 482 nM
AAAACUAUCAGAAGGAGCGUGGAAUAUUCAUCUGUAUCUAAUACGAGUGAUGUUCGUAAUUCACAGGUAGGUCGCUGAUCAAUAA [whbob_Ex_Arginine_B_2th155] | 255 nM | 226 nM | 241 nM | 250 nM | 241 nM
CCUGCGGCUUCCGGCGGGCCCGAUUUAUAAAAGGAUAUGUGCGUACACAGAAGGUUUAACGAGGGACCGAGAGUGAUGUUCUCCU [theeternabot_sameState_KL_FMN_A_33] | 585 nM | 174 nM | 316 nM | 370 nM | 418 nM
GGUUCCUCAGUGAUGUUGAGGUGACCUCGGCAGGAUAUAGGCAUUACUAGAAGGGCCAAAUGAACCCUGUCCAGCGGCACAGGGA [Arleorbile] | 147 nM | 213 nM | 331 nM | 298 nM | 252 nM
GACCUAAGCUAUGAUACCAGUCUGGCACGAAGAAGUGAUGUUUCCCAGCGUUUGUCACUUGACCCUUGGCAGCAUGCGAUCAGCU [theeternabot_sameState_KL_Theo_B_29] | 197 nM | 106 nM | 151 nM | 165 nM | 128 nM
UGUGUUUACCUGACUCAGUGAUGUUGAGAAGGAGCGUGCUAAGGCACAGGUAGGUCGCUCAACCUAAAUUCAGGUGAGCACUAAA | 305 nM | 351 nM | 197 nM | 274 nM | 207 nM
AUCUAUGAGCGAGGAUAUGCAUAACGCGAGUGAUGUUCGCGAUGUGGGCGUAAUUGAUAAAAUGAAGCAGAAGGCGCACUCAUGA [Exclusion - FMW B / B] | 165 nM | 115 nM | 177 nM | 155 nM | 120 nM
UGAACCCGGUCGGCCGCCACUCUGAGAACCAUCGCCCUACGUGCAGUGAUGUUGUACCUAAUGAGGAGGACCGGGACUGGGCGGC [theeternabot_sameState_KL_Trp_B_36] | 316 nM | 277 nM | 360 nM | 204 nM | 223 nM
AUCGUUGUCUGAGGAUAUCGUUUUACUGUAGUGAUGUUACAGAAAAUUCACAUUAUAAUUUCUAUUCGAGAAGGCAGACUACGUA [JR_ExcFMNB_Sub015] | 134 nM | 112 nM | 120 nM | 114 nM | 120 nM
UUGGCUGGACGGGAUACCAGCCAAAUCGUGUGCUUAGGAUGUCUAAGAGCCAGUGAUGUUGGCCCUUGGCAGCCCUCCUAGCUUG [Ordigear] | 154 nM | 115 nM | 138 nM | 124 nM | 136 nM
UAAUAAAUUCUGGCAAUGUCACUCUUCGAAGGAGCGGACGAAAGUCCAGGUAGGUCGCGAAGAGUGAUGUUCUUCGCGGCGCCAG [Omei KL Arginine A Exc A v1] | 299 nM | 235 nM | 235 nM | 304 nM | 268 nM
CCAUCGCUAUUCGAUACCAGCUCCUUAGUGAUGUUAAGGUUUUACGCUCUGUAGGAGCGAAGCCCUUGGCAGCGAGUAGUGAUGG [#04 K4 Theophylline B Same State] | 1120 nM | 832 nM | 1060 nM | 716 nM | 1110 nM
